Assay results as given in patent publication US20230256092A1 (SHIONOGI, published 2023).
Where two headings read alike, the source gives them in different places.

T1: mouse CCR8 (mouse, UniProt P56484 1-353)
T1 construct: full length, on Expi293 cells; also called mCCR8
T1 sequence: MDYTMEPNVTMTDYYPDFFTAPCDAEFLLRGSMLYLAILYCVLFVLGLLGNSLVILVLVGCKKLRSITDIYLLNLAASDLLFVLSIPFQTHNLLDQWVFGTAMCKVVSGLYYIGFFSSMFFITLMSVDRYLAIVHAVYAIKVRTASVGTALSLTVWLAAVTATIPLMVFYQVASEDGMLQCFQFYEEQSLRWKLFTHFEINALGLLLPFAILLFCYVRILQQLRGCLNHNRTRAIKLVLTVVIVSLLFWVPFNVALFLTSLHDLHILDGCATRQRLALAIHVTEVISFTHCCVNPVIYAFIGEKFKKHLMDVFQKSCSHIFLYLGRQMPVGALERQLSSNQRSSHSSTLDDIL

T2: human CCR4 (human, UniProt P51679 1-360)
T2 construct: full length, on Expi293 cells; also called hCCR4
T2 sequence: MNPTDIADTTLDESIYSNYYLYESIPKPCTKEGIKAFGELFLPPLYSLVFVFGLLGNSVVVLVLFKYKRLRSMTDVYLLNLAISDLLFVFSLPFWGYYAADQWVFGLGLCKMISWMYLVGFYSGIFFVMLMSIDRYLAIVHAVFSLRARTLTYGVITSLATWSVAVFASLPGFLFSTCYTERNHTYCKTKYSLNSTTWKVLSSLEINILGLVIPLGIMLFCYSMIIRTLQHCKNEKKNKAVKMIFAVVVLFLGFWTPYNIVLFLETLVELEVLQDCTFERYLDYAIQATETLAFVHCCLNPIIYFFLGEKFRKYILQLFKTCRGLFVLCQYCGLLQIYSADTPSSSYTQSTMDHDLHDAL

T3: N-ter hCCR4-hCCR8 (human)
T3 construct: chimera on Expi293 cells; also called human CCR8 with the N-terminal region substituted with that of human CCR4
T3 chain: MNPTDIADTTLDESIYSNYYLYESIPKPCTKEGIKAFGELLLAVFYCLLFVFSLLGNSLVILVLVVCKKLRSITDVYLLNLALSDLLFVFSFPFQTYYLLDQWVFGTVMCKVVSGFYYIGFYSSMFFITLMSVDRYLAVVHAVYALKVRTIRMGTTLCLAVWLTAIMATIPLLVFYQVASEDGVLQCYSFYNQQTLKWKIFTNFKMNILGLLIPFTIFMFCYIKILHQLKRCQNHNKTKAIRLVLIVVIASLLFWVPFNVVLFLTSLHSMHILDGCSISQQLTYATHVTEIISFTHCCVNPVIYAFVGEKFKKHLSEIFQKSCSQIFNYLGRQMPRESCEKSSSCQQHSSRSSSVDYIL


Experiments:
human CCR8 [1] = molecular target: T4, human CCR8 (human, UniProt P51685 1-355); assay: cell-based or functional assay
human CCR8 [2] = molecular target: T4, human CCR8; assay: cell-based or functional assay; remark: listed apart in the source
human CCR8 [3] = molecular target: T4, human CCR8; assay: cell-based or functional assay; remark: listed apart in the source
loop3 hCCR4-hCCR8 = molecular target: T5, loop3 hCCR4-hCCR8 (human, UniProt P51685 1-355); assay: FCM, Expi293 transfectants; blank cell = same binding activity as wild-type hCCR8
T5 construct: chimera on Expi293 cells; hCCR8 264-280 replaced

mouse CCR8 = molecular target: T1, mouse CCR8; assay: flow cytometry on Expi293 transfectants
loop1 hCCR4-hCCR8 [4] = molecular target: T6, loop1 hCCR4-hCCR8 (human, UniProt P51685 1-355); assay: flow cytometry on Expi293 transfectants
T6 construct: chimera on Expi293 cells; hCCR8 94-107 replaced; also called loop1-human CCR4-substituted human CCR8

human CCR4 = molecular target: T2, human CCR4; assay: flow cytometry on Expi293 transfectants
N-ter hCCR4-hCCR8 = molecular target: T3, N-ter hCCR4-hCCR8; assay: flow cytometry on Expi293 transfectants
hCCR8 (Y17A) = molecular target: T7, hCCR8 (Y17A) (human, UniProt P51685 1-355); assay: flow cytometry on Expi293 transfectants
T7 construct: also called mutant in which Y at position 17 of human CCR8 is substituted for A

human CCR8 [5] = molecular target: T4, human CCR8; assay: cell-based or functional assay; remark: listed apart in the source
loop2 hCCR4-hCCR8 = molecular target: T8, loop2 hCCR4-hCCR8 (human, UniProt P51685 1-355); assay: FCM, Expi293 transfectants; Δ = significantly reduced binding activity vs wild-type hCCR8
T8 construct: chimera on Expi293 cells; hCCR8 172-202 replaced; also called loop2-human CCR4-substituted human CCR8

human CCR8 [6] = molecular target: T4, human CCR8; assay: cell-based or functional assay; remark: listed apart in the source
human CCR8 [7] = molecular target: T4, human CCR8; assay: cell-based or functional assay; remark: listed apart in the source
hCCR8 (K35A) = hCCR8 (K35A) (human, UniProt P51685 1-355); assay: flow cytometry on Expi293 transfectants
loop1 hCCR4-hCCR8 [8] = molecular target: T6, loop1 hCCR4-hCCR8; assay: FCM, Expi293 transfectants; Δ = significantly reduced binding activity vs wild-type hCCR8

Binder	IC50 (nM), Ca2+ influx by 200 nM hCCL1 (human CCR8 [1]) [nM]	IC50 ratio (WT IC50/mutant IC50) (human CCR8 [2]) [ratio]	IC50 ratio (WT IC50/mutant IC50) (human CCR8 [3]) [ratio]	binding result (loop3 hCCR4-hCCR8)	binding result (mouse CCR8)	binding result (loop1 hCCR4-hCCR8 [4])	binding result (human CCR4)	binding result (N-ter hCCR4-hCCR8)	binding result (hCCR8 (Y17A))	IC50 (nM), Ca2+ influx by 200 nM hCCL1 (human CCR8 [5]) [nM]	binding result (loop2 hCCR4-hCCR8)	Neutralizing activity IC50 (nM), Ca2+ influx by 100 nM hCCL1 (human CCR8 [6]) [nM]	IC50 (nM), Ca2+ influx by 200 nM hCCL1 (human CCR8 [7]) [nM]	binding result (hCCR8 (K35A))	binding result (loop1 hCCR4-hCCR8 [8])
2C7 (antibody, V domains shown, mouse hybridoma antibody, purified) VH: QVQLKQSGPSLVQPSQSLSITCTVSGFSLTAYGVHWIRQSPGKGQEWLGVIWRGGSTDYNAAFMSRLTITKDNSKSQVFFKMNSLQADDTAIYYCAKKGGSYAMDYWGQGTSVTVSS VL: DVVLTQTPLSLPVSLGGQASISCRSSQSLVHSNGNTYLHWYLQKPGQSPKLLIYKVSNRFSGVPDRFSGSGSGTDFTLKISRVEAEDLGVYFCSQSTQVPLTFGAGTKLELKR	–	–	–	binds	no binding	no binding	no binding	no binding	no binding	1.19	binds	0.4	–	–	–
1H4 (antibody, V domains shown, mouse hybridoma antibody, purified) VH: EVQLVESGGRLVQPKGSLKLSCAASGFTFNTYAMYWIRQAPGKGLEWVARIRSKSNNYATYYADSVKDRFTISRDDSQSMLYLQMNNLKTEDTAMYYCVRARFYYSDYGYAMDYWGQGTSVTVSS VL: DIVMTQAAPSVPVTPGESVSISCRSSKSLLHSNGNTYLYWFLQRPGQSPQLLIYRMSNLASGVPDRFSASGSGTAFTLRISRVEAEDVGVYYCMQHLEYPLTFGAGTKLELKR	–	–	–	binds	no binding	–	no binding	no binding	no binding	0.36	binds	0.32	–	no binding	binds
10A11 (antibody, V domains shown, mouse hybridoma antibody, purified; also called m10A11) VH: EVQLVESGGRLVQPKGSLKLSCAASGFAFNTYALYWIRQAPGKGLEWVARIRSKSNNYATYYADSVKDRFTISRDDSQSMLYLQMNNLKTEDTAMYYCVRARFYYSDYGYAMDYWGQGTSVTVSS VL: DIVMTQAAPSVPVTPGESVSISCRSSKSLLHSNGNTYLYWFLQRPGQSPQLLIYRMSNLASGVPDRFSGSGSGTAFTLRISRVEAEDVGVYYCMQHLEYPLTFGAGTKLELKR	0.23	–	–	binds	no binding	–	no binding	no binding	no binding	0.23	binds	0.08	–	–	binds

Now from value to binder:

IC50 (nM), Ca2+ influx by 200 nM hCCL1 (human CCR8 [1]) [nM]	IC50 ratio (WT IC50/mutant IC50) (human CCR8 [2]) [ratio]	IC50 ratio (WT IC50/mutant IC50) (human CCR8 [3]) [ratio]	binding result (loop3 hCCR4-hCCR8)	binding result (mouse CCR8)	binding result (loop1 hCCR4-hCCR8 [4])	binding result (human CCR4)	binding result (N-ter hCCR4-hCCR8)	binding result (hCCR8 (Y17A))	IC50 (nM), Ca2+ influx by 200 nM hCCL1 (human CCR8 [5]) [nM]	binding result (loop2 hCCR4-hCCR8)	Neutralizing activity IC50 (nM), Ca2+ influx by 100 nM hCCL1 (human CCR8 [6]) [nM]	IC50 (nM), Ca2+ influx by 200 nM hCCL1 (human CCR8 [7]) [nM]	binding result (hCCR8 (K35A))	binding result (loop1 hCCR4-hCCR8 [8])	Binder
0.15	1	–	–	–	–	–	–	–	–	–	–	–	–	–	h10A11 (IGKV4-1/IGHV3-15 T94R) (antibody, V domains shown) VH: EVQLVESGGALVKPGGSLRLSCAASGFTFSTYALYWVRQAPGKGLEWVGRIRSKSNNYATYYADSVKDRFTISRDDSKNTLYLQMNSLKTEDTAVYYCTRARFYYSDYGYAMDYWGQGTLVTVSS VL: DIVMTQSPDSLAVSLGERATINCRSSKSLLHSNGNTYLYWYQQKPGQPPKLLIYRMSNLASGVPDRFSGSGSGTDFTLTISSLQAEDVAVYYCMQHLEYPLTFGQGTKLEIKR
0.17	–	1	–	–	–	–	–	–	–	–	–	–	–	–	h10A11 (IGKV4-1/IGHV3-73) (antibody, V domains shown) VH: EVQLVESGGGLVQPGGSLKLSCAASGFAFNTYALYWVRQASGKGLEWVGRIRSKSNNYATYYADSVKDRFTISRDDSKNTAYLQMNSLKTEDTAVYYCTRARFYYSDYGYAMDYWGQGTLVTVSS VL: DIVMTQSPDSLAVSLGERATINCRSSKSLLHSNGNTYLYWYQQKPGQPPKLLIYRMSNLASGVPDRFSGSGSGTDFTLTISSLQAEDVAVYYCMQHLEYPLTFGQGTKLEIKR
–	–	–	–	–	–	–	–	–	–	–	–	0.46	–	–	h19D7 (IGKV2-18/IGHV3-73) (antibody, V domains shown) VH: EVQLVESGGGLVQPGGSLKLSCAASGFTFSTYAMYWVRQASGKGLEWVGRIRSKSNNYATYYADSVKDRFTISRDDSKNTAYLQMNSLKTEDTAVYYCTRGGYGNYRYAMDYWGQGTTVTVSS VL: DIVMTQTPPSLPVNPGEPASISCRSSKSLLHSNGNTYLYWYLQKPGQSPQLLIYRVSNLASGVPDRFSGSGSGSDFTLKISWVEAEDVGVYYCMQHLEYPFTFGQGTKLEIK
–	–	–	binds	no binding	no binding	no binding	no binding	no binding	3.03	binds	1.56	–	–	–	8F7 (antibody, V domains shown, mouse hybridoma antibody, purified) VH: EVQLVESGGRLVQPKRSLKLSCAASGFTFNPYAMYWIRQAPGQGLEWVARIRSKSNNYATYYADSVKDRFTISRDDSQSMLYLQMNNLKTEDTAMYYCVRGHQGTMDYWGQGTSVTVSS VL: DIVMTQAAPSVPVTPGESVSISCRSSKSLLHSNGNTYLYWFLQRPGQSPQLLTYRMSNLASGVPDRFSGSGSGTAFTLRISRVEAEDVGVYYCMQHLEYPFTFGGGTKLEIKR
